From publication PMC6972956 come the findings set out here.

The target of assay [1] is recombinant integrin αIIbβ3 stably expressed on K562 cells (UniProt P08514). Put plainly: flow cytometry on cells; mAb PT-25-activated αIIbβ3-K562 cells incubated 30 min at RT with serially diluted unlabeled Hr10, hFN10 or eptifibatide in the presence of 0.5 µM Alexa647-conjugated FB; buffer A.
The target in assay [2] is recombinant integrin αVβ3 stably expressed on K562 cells (UniProt P06756). Put plainly: flow cytometry on cells; displacement of Alexa647-labeled hFN10 from αVβ3-K562 cells by unlabeled hFN10 or Hr10; buffer A (1 mM MgCl2, 1 mM CaCl2), RT.
Sequence of UniProt P06756 (P06756 31-1048, chain 1 of 2): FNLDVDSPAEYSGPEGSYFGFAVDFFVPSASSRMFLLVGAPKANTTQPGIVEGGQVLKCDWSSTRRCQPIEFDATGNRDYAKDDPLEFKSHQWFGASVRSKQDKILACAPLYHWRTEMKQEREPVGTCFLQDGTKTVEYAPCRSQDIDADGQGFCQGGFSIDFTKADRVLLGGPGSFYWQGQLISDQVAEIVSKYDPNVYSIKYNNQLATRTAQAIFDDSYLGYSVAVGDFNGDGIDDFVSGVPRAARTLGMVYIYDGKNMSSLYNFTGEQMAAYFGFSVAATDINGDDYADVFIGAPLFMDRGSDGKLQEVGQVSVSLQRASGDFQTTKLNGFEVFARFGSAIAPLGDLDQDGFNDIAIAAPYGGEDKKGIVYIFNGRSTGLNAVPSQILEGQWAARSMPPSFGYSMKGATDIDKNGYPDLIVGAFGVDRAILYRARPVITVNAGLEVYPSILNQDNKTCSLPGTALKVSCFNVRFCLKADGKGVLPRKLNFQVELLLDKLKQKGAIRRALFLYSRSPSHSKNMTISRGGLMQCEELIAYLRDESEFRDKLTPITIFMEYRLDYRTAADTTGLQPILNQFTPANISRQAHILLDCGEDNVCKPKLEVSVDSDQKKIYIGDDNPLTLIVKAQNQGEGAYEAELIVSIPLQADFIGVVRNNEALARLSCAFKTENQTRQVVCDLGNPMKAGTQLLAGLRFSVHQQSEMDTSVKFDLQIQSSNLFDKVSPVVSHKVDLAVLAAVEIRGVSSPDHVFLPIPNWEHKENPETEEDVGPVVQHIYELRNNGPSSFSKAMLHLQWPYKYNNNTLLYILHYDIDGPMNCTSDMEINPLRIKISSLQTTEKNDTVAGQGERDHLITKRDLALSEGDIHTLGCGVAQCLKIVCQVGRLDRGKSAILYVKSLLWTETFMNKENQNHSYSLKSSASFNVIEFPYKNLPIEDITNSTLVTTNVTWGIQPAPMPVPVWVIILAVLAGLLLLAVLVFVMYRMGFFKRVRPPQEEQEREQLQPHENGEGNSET
Sequence of UniProt P06756 (P05106 27-788, chain 2 of 2, further chain): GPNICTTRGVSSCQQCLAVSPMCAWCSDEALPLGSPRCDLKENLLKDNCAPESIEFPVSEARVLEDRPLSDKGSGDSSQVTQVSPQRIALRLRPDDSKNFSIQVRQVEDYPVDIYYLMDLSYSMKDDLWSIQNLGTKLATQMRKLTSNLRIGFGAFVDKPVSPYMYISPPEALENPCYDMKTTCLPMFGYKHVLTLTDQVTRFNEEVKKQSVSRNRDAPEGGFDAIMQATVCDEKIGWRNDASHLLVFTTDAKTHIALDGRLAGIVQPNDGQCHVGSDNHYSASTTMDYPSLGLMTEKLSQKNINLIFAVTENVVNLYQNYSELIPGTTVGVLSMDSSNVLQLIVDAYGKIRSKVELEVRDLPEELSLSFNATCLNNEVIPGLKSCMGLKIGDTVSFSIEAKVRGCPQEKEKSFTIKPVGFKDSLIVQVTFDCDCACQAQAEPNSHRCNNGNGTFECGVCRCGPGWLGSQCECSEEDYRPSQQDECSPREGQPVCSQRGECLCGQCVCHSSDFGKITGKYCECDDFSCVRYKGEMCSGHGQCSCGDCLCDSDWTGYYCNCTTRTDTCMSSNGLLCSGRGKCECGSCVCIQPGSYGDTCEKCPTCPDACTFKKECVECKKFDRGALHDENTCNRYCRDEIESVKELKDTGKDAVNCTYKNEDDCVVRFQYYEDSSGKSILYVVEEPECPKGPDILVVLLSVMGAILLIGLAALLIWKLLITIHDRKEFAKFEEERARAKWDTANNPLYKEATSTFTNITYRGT

For the substance eptifibatide (peptide), the IC50 in assay [1] came to 73.2 nM.

Consider “hFN10 (from UniProt P02751 1539-1631) (designed binder)”, for which the IC50 in assay [2] turned out to be 3.6 nM; in assay [1] it was 474 nM.
